Results taken from patent US20080089837A1.

Target: PDGFR-alpha (platelet derived growth factor receptor-alpha) on human osteosarcoma MG-63 cells (human) (UniProt P16234)
Assay: FACS titration on MG-63 cells, nonlinear fit of geometric mean fluorescence; goat anti-mouse detection; 95% CI ±99 pM

PDGFR-alpha (platelet derived growth factor receptor-alpha) on human osteosarcoma MG-63 cells (human), sequence (P16234 24-1089): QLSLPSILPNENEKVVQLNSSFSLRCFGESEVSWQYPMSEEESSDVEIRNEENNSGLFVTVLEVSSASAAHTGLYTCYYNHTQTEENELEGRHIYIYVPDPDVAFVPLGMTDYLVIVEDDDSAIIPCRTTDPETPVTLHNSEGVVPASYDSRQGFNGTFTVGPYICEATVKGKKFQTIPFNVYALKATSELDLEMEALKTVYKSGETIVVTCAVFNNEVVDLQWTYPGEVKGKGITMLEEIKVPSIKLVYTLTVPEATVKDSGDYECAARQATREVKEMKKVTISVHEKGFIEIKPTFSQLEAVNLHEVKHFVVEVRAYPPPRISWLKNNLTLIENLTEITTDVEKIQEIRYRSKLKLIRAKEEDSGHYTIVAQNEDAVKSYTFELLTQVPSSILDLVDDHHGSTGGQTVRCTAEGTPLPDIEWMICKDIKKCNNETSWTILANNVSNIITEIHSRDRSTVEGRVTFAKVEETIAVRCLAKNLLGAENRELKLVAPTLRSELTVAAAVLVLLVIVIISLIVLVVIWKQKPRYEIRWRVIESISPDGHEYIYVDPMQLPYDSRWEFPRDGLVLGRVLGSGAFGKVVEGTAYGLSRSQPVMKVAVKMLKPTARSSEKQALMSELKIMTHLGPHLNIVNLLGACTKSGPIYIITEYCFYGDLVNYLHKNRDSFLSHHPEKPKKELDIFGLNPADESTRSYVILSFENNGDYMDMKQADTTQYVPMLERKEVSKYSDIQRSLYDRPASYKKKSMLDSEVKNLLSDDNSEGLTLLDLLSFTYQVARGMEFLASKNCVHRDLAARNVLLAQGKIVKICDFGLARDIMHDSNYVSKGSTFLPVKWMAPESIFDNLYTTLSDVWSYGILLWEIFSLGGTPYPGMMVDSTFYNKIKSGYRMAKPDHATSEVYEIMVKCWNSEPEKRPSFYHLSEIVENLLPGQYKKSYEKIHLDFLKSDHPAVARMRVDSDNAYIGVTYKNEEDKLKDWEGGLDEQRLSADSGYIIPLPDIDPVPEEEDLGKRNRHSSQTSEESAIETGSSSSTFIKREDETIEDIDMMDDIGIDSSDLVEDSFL

Substance: CD140a control antibody
- Kd: 0.146 nM
